Our source for the stoichiometry N values is article PMC11979922.

The experiment deals with HOL-30, β-galactoside-binding tandem-repeat galectin from the marine sponge Halichondria okadai (Halichondria okadai). Description: SEC. Background: In gel filtration, larger molecules generally elute earlier.

The stoichiometry N is a count of units in the complex or per binding partner. “HOL-30, β-galactoside-binding tandem-repeat galectin from the marine sponge Halichondria okadai (natural protein)” registered a stoichiometry N of 2.
